In PMC10075959:

How the values were obtained:
[1] = target: 229E-related bat coronavirus N-protein LRS peptide (comprising the predicted helix) (229E-related bat coronavirus); assay: AUC
[2] = target: human coronavirus NL63 N-protein LRS peptide (comprising the predicted helix) (human coronavirus NL63); assay: AUC; sedimentation velocity of peptides at different concentrations, 20°C, 55,000 rpm, working buffer (10.1 mM Na2PO4, 1.8 mM KH2PO4, 2.7 mM KCl, 10 mM NaCl, pH 7.40), also with 10% TFE; c(s) distributions; monomer to oligomer (trimer)
[3] = target: murine hepatitis virus (MHV) N-protein LRS peptide (comprising the predicted helix) (murine hepatitis virus); assay: as above
[4] = target: SARS-CoV N-protein LRS peptide (comprising the predicted helix) (SARS-CoV); assay: AUC
[5] = target: MERS N-protein LRS peptide (comprising the predicted helix) (MERS); assay: AUC

Substance: 229E-related bat coronavirus N-protein LRS peptide (comprising the predicted helix)
- stoichiometry N [1]: 3

Substance: human coronavirus NL63 N-protein LRS peptide (comprising the predicted helix)
- stoichiometry N [2]: 3

Substance: murine hepatitis virus (MHV) N-protein LRS peptide (comprising the predicted helix)
- stoichiometry N [3]: 3

Substance: SARS-CoV N-protein LRS peptide (comprising the predicted helix)
- stoichiometry N [4]: 3

Substance: MERS N-protein LRS peptide (comprising the predicted helix)
- stoichiometry N [5]: 3
